What is called Ki is the equilibrium dissociation constant of an inhibitor or competing ligand from its target.

Data set [1] has as its target T1, hSSB2-OB (NABP1 OB domain) (human, UniProt Q96AH0 1-132). The data set can be described thus: SPR competition; competes with immobilised biotinylated wild-type ssDNA; value only in figure; 2 mM MgCl2; SPR: 20 mM Tris pH 7.0, 50 mM NaCl, 2 mM MgCl2, 0.01% P20, 2 mM DTT; EMSA: 20 mM Tris pH 7.5, 100 mM NaCl, 1 mM DTT, 100 µg/mL BSA, 37 °C; agarose shift: 10 mM. Conditions: protein: recombinant; tags: GST tag (pGEX-6P) removed by HRV3C protease; single strand.

Data set [2] addresses T1, hSSB2-OB (NABP1 OB domain). The data set can be described thus: EMSA; SPR: 20 mM Tris pH 7.0, 50 mM NaCl, 2 mM MgCl2, 0.01% P20, 2 mM DTT; EMSA: 20 mM Tris pH 7.5, 100 mM NaCl, 1 mM DTT, 100 µg/mL BSA, 37 °C; agarose shift: 10 mM. Conditions: protein: recombinant, tags: GST tag (pGEX-6P) removed by HRV3C protease, label: 32P.
In data set [3] the target is T1, hSSB2-OB (NABP1 OB domain). The data set can be described thus: SPR competition; competes with immobilised biotinylated wild-type ssDNA; 2 mM MgCl2; SPR: 20 mM Tris pH 7.0, 50 mM NaCl, 2 mM MgCl2, 0.01% P20, 2 mM DTT; EMSA: 20 mM Tris pH 7.5, 100 mM NaCl, 1 mM DTT, 100 µg/mL BSA, 37 °C; agarose shift: 10 mM. The settings on record: protein: recombinant; tags: GST tag (pGEX-6P) removed by HRV3C protease; blunt, central 2-nt mismatch (TT opposite CC; S3 positions 11-12). A general note: A gel shift assay detects complexes by their altered migration in electrophoresis.

The target in data set [4] is T1, hSSB2-OB (NABP1 OB domain). The data set can be described thus: SPR competition; almost same affinity as undamaged GATTGC; value only in figure; 2 mM MgCl2; SPR: 20 mM Tris pH 7.0, 50 mM NaCl, 2 mM MgCl2, 0.01% P20, 2 mM DTT; EMSA: 20 mM Tris pH 7.5, 100 mM NaCl, 1 mM DTT, 100 µg/mL BSA, 37 °C; agarose shift: 10 mM. The settings on record: protein: recombinant; tags: GST tag (pGEX-6P) removed by HRV3C protease; single strand.

T1 sequence (Q96AH0 1-132): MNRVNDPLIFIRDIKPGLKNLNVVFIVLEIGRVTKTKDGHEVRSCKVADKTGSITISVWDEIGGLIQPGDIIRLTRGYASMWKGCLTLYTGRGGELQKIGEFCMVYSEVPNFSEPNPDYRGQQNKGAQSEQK

As to GATTGC (ssDNA) [6mer GATTGC wild-type], in data set [1], the binding result is recorded as “binds”.

In the case of CCTCGAGGGATCCGTCCTAGCAAGCCGCTGCTACCGGAAGCTTCTGGACC (ssDNA) [50mer ssDNA (EMSA)], the binding result in data set [2] (single strand) is “binds”.

B1: 50 bp dsDNA (EMSA) (dsDNA)
DNA 1: CCTCGAGGGATCCGTCCTAGCAAGCCGCTGCTACCGGAAGCTTCTGGACC
DNA 2: GGTCCAGAAGCTTCCGGTAGCAGCGGCTTGCTAGGACGGATCCCTCGAGG
Take B1: the binding result in data set [2] (blunt) is listed as “no binding”.

B2: 23mer duplex with 2-nt bubble (dsDNA)
DNA 1: CGAACGATCATTACTAGCTCCAA
DNA 2: TTGGAGCTAGTCCTGATCGTTCG
With B2, the Ki in data set [3] turned out to be 1000 nM.

Turning to GATTGC (ssDNA, cyclobutane pyrimidine dimer between T3 and T4) [6mer GATTGC with CPD], in data set [4], the binding result was “binds”.

Source of the values: article PMC8511049, “hSSB2 (NABP1) is required for the recruitment of RPA during the cellular response to DNA UV damage”.
